The values that follow come from article PMC4946879.

For assay [1], the target named is HIV-1 Gag CTD-SP1 (residues 281–377 of HIV-1 NL4-3 Gag, P373T) (HIV-1 NL4-3). The experiment in a line: crystal structure; plate crystals of stacked flat hexagonal lattices; 0.1 M Bis-Tris propane, pH 7-8, 0.8-1.0 M LiSO4; sitting drops, 1:2 protein:precipitant; 3.27 Å.
The target is the same in assay [2]. The experiment in a line: crystal structure; other crystal hits from screens with commercial and in-house precipitants; mature-like dimer form of the CTD with disordered SP1 tails; not deposited.

In general, stoichiometry N refers to the number of molecules, sites or subunits per partner or assembly. With “HIV-1 Gag CTD-SP1 (residues 281–377 of HIV-1 NL4-3 Gag, P373T) (domain or fragment)”, the stoichiometry N in assay [1] came out at 6; in assay [2], 2.
